Data: article PMC9287160 (2022)

How the values were obtained:
Experiment in all cases: BLI
[1] = target: T1, human integrin αMβ2 headpiece fragment (human, UniProt P11215 17-1152; P05107 23-482)
[2] = target: T2, recombinant human αMβ2 αI domain (human)
T2 chain: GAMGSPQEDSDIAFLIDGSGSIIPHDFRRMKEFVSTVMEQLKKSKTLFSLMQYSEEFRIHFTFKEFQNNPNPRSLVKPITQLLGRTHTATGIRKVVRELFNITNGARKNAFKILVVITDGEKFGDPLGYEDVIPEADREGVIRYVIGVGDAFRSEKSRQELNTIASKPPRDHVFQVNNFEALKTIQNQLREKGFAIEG

[3] = target: T1, human integrin αMβ2 headpiece fragment; remark: listed apart in the source
[4] = target: T2, recombinant human αMβ2 αI domain

Kd [1]: 0.85 nM
Kd [2]: 6.6 nM
koff [3]: 0.00047 s⁻¹
koff [4]: 0.0032 s⁻¹
B1: biotinylated avi-tagged hCD11bNb1 (VHH)
VHH: QVQLVETGGGLVQAGGSLRLSCAASGNINSFNAMGWFRQAPGKQRELVAAITFGGRTNYADSVKGRFTISRDNTKGSVYLQMNSLKPEDTAVYYCAASENNLLTGVWHYWGRGTQVTVSS
modifications: biotin
